Test results taken from PMC4870127.

Columns and labels:
Assay in all cases: FXa generation assay
[1] = target: Factor VIIIa T657Y/Y1792T swap variant (thrombin-activated B-domainless FVIII)
[2] = target: Factor VIIIa (WT), thrombin-activated WT B-domainless FVIII
[3] = target: Factor VIIIa D666S/S1787D swap variant (thrombin-activated B-domainless FVIII)

Substance: FIXaβ (from UniProt P00740 47-191; P00740 227-461) (enzyme)
- Kd [1]: 1.45 nM
- Kd [2]: 0.92 nM
- Kd [3]: 1.73 nM
